Results reported in the RNAGym collection of RNA variant scans (doi:10.1073/pnas.2313332121).

B1: TPR t1 (parent)
chain: GACCAAUCUGCCCUCAGAGCUCGAGAACAUCUUCGGAUGCAGAGGAGGCAGGCUUCGGUGGCGCGAUAGCGCCAACGUCCUCAACCUCCAAUGCAUCCCACCACAUGAUGAUGCCUGAAGAGCCUUGGUUUUUUG

Variants of: B1
Experiment: polymerase ribozyme fitness, log enrichment relative to wild type (log ratio); higher = more active; in vitro selection for triplet polymerase activity
Procedure, shortened: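 A single round of triplicate in vitro selection, including frozen incubation at −7 °C, was applied to PCR-built, transcribed mutant libraries of each subunit of a heterodimeric triplet polymerase ribozyme. Illumina sequencing of input and output libraries retained genotypes with ≥10 input reads and ≥1 read per output. Fitness is the base-2 logarithm of genotype enrichment divided by wild-type enrichment, from inverse-variance-weighted replicate averages.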

Variant	polymerase ribozyme fitness (log ratio)
GACCAUUCUGCCCUCAGAGCUCGAGAACAUCUUCGGAUGCAGAGGAGGCAGGCUUCGGUGGCGCGAUAGCGUCAAGGUCCUCAACCUCCAAUGCAUCUCACCACAUGAUGAUGCCUGAAGAGCCUUGGUUUUUUG [A6U C72U C76G C98U]	-1.11
GACCAAUCUGCACUCAGAGCUCGAGAACAUCUUCGGAUGCAGAGGAGGCAGGCUUCGGUGGCGCGAUAGCGUCAACGUCCUCAACCUCCAAUGCAUCCCCCCACAUGAUGAUGCCUGAAGAGCCUUGGUUUUGUG [C12A C72U A100C U133G]	-1.76
GACCAAUCUGCCCUCAGAGCUCGAGAACAUCUUCGGAUGCAGAGGAGGCAGGCUUCGGUGGCGCGAUAGCGCCAACGUCCUCAACCUCCAAUGCGUCUCACCACAUGAUGAUACCUGGAGAGCCUUGGUUUUUUG [A95G C98U G113A A118G]	-3.57
GACCAAUCUGCCCUCAGAGCUCGAGAACAUCUUCGGAUGCAGAGGAGGCAGGCUUCGGUGGCGCGAUAGCCCCAACGUCCGCAACCUCCAAUGCAUUCCACCACAAGAUGAUGCCUGAAAAGCCUUGGUUUUUUG [G71C U81G C97U U106A G120A]	-3.76
GACCAAUCUGCCCUCAGAGCUCGAGAACAUCUUCGGAUGCAGAGGAGGUAGGCUUCGGUGGCGCGAUAUCGCCAACGUCCUCAACCUCCAAUGCAUCCCACCACAUGAUGAUGCCUGAAGAGCCUUGGUUUUUUG [C49U G69U]	0.911
GACCAAUCUGCCCUCAGAGCUCGAGAACAUCUUCGGAUGCAGAGGAGGCAGGCUUCGGUGGCGCGAUAGCGCCAACGGCCUCAACCUCCAAUGCGUCCCACCACAUGAUGAUGCCUGAAGAGCCGUGGUUUUUUG [U78G A95G U125G]	-1.07
GACUAAUCUGCCCUCAGAGCUCGAGAACAUCUUCGGAUGCAGAGGAGGCAGGCUUCGGUGGCGCGAUAUCGCCAACGUCCUCAACCUCCAAUGCAUCCCACCACAUGAUGAUGCCUGAAGAGCCUUGGUUUUUUG [C4U G69U]	-0.399
GACCAAUCUGCCCUCAGAGCUCGAGAACAUCUUCGGAUGCAGAGGAGGCAGGCUUCGGGGGCGCGAUAGCGCCAACGUCCGCAACCUCCAAUGCAGCCCACCACAUGAUGAUGCCUGAAGAGCCUUGGUUUUUUG [U59G U81G U96G]	-3.9
GACCAAGCUGCCGUCAGAGCUCGAGAACAUCUUCGGAUGCAGAGGAGGCAGGCUUCAGUGGCGCGAUAGCGCCAACGUCCUCAACCUCCAAUGCAUCCCACCACAUGAUGAUGCCUGAAGAGCCUUGGUUUUUUG [U7G C13G G57A]	-0.156
GACCAAUCUGCCCUCAGAGCUCGAGAACAUCUUCGGAUGCAGGGGAGGCAGGAUUCGGUGGCGCGAUAGCGCCAACGUCCUCAACCUCCAAUGCAUCCCACCACAUGAUGAUGCCUGAAGAGCCUUGGUUUUUUG [A43G C53A]	-2.39
GACCAAUCUGCCCUCAGAGCUCGAGAACAUCUUCGGAUGCAGAGGAGGCAGGCUUCGGUGGCGCGAUAGCGCGAACGUCCUCAACCUCCAAUGCAUCCCAACACAUGAUGAUGCCUGAACAGCCUUGGUUUUUUG [C73G C101A G120C]	-0.681
GACCAAUCUGCCCUCAGAGCUCGAGAACAUCUUCGGAUGCAGAGGAGGCAGGCUUCGGUGGCGCGAUAUCGCCAACGUCCUCAACCUUCAAUGCAUCCCACCACAUGAUGAUGCCUGAAGAGCCUUGGUUUUUUG [G69U C88U]	-0.366
GACCAAUAUGCCCUCAGAGCUCGAGAACAUCUUCGGAUGCAGAGGAGGCAGGCUUCGGUGACGCGAUAGCGCCAACGUCCUCAACCUCCAAUGCAUCCCACCACAUGAUGAUGCCUGAAGAGCCUUGGUUCUUUG [C8A G61A U131C]	0.52
GACCAAUCUGCCCUCAGAGCUCGAGAACAUCUUCGGAUGUAGAGGAGGCAGGCUUCGGUAGCGCGAUAGCGCCAACGUCCUCAACCUCCAAUGCAUCCCACCACAUGAUGAUGCCUGAAUAGCCUUGGUUUUUUG [C40U G60A G120U]	-0.0652
GCCCAAUCUGACCUCACAGCUCGAGAACAUCUUCGGAUGCAGAGGAGGCAGGCUUCGGUGGCGCGAUAGUGCCAACGUCCUCAACCUCCAAUGCAUCCCACCACAUGAUGAUGCCUGAAGAGGCUUGGUUUUUUG [A2C C11A G17C C70U C123G]	-3.69
GACCAAUGUGCCCUCAGAGCUCGAGAUCAUCUUCGGAUGCAGAGGAGGCAGGCUUCGGUGGCGCGAUAGCGCCAACGUCCUCAACCUCGAAUGCAUCCCACCACAUGAUGAUGCCUGAAGAGCCUUGGUUUUUUG [C8G A27U C89G]	-4.7
GACCAAUCUGCCCUCAGUGCUCGAGAACAUCUUCGGAUGCAGAGGAGGCAGGCUUCGGUGGCGCGCUAGCGCCAACGUCCUCAACCUCCAAUGCAUCCCACCACAUGAUGAUGCCUGAAGAGCCUUGGUUUUUUG [A18U A66C]	-4.55
GACCAAUCUGCCCUCAGAGCUCGAGAACAUCUUCGGAUGCAGAGGAGGCAAGCUUCGGUGGCGCGAUAGCGCCAACGUCCUCCACCUCCAAUGCAUCCCACCACAUGAUGAUGCCUGAAGAGCCUUGGUUUUUUG [G51A A83C]	-3.73
GACCAAUCUGCCCUCAGAGCUCGAGAACAUCUUCGGAUGCAGAGGAGGCAGGCUACGGUGGCGCGAUAGCGCCAACGUCCUCAACCACCAAUGCAUCCCACCACAUGAUGAUGCCUGAAGAACCUUGGUUUUUUG [U55A U87A G122A]	-0.825
GACCAAUCUGCCCUCAGAGCUCGAGAACAUCUUGGGAUGCAGAGGAGGCAGGCUUCGGUGGCGCGAUAGUGCCAACGUCCUCAACCUCCAAUGCAACCCACCUCAUGAUGAUGCCUGAAGCGCCUUGGUUUCUUG [C34G C70U U96A A103U A121C U132C]	-7.51
GACCAAUCUGCCCUCAGAGCUCGAGAACAUCUUCGGAUGCAGAUGUGGCAGGCUUCGGUGGCGCGAUAGUGCCAACGUCCUCAACCUCCAAUGCAUCCCACCACAUGAUGAUGCCUGAAGAGCCUUGGUUUUUUG [G44U A46U C70U]	-3.55
